# Test results reported in US20230125173A1.
# Key:
# TGFβ1 (R&D systems) = TGFβ1 (R&D systems) (UniProt P01137); assay: cell-based or functional assay
# [1] = target: IL2Rβ and common γ chain on 32Dβ cells; assay: cell-based or functional assay
# UniProt P01137, sequence (P01137 279-390 limits assumed): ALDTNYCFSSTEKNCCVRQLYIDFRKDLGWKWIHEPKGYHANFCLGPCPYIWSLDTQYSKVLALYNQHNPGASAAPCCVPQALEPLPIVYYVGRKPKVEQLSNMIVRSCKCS
"IC50, inhibition of TGFβ1 (0.1nM stock) activity in HEK-Blue TGFβ reporter cells, QUANTI-Blue OD 620-655 nM (TGFβ1 (R&D systems))","EC50, 32Dβ cell proliferation (WST1, absorbance at 450 nM) [1]",Substance
0.461 nM,–,TGFR-Fc (R&D Systems) (Fc fusion)
–,0.0106 nM,recombinant IL-15 (from UniProt P40933 49-162) (ligand)
